Laboratory results published in PMC6005658 (2017).
Where two headings read alike, the source gives them in different places. *1 amine or outer side, *2 acyl side, *3 side chain or, on linkers, in order; H or OH if unused. Bridges are numbered along the chain shown (N, C = ends). [ ]: non-standard residue; d: D form. Tyr(All) = C=CCOc1ccc(C[C@H](N[*:1])C(=O)[*:2])cc1

Experiments:
Experiment in all cases: radioligand binding
arodyn analog 4 [1] = target: T1, arodyn analog 4 (staple 2-3; also: RCM olefin trans)
T1 chain: Ac-F[Tyr(All)][Tyr(All)]RLRRIRPK-NH2

arodyn analog 5 [2] = target: T2, arodyn analog 5
T2 chain: Ac-[Tyr(All)]FFRLRRIRPK-NH2

arodyn analog 7 [3] = target: T3, arodyn analog 7 (SMILES …)
T3 chain: Ac-FF[Tyr(All)]RLRRIRPK-NH2

arodyn analog 3 [4] = target: T4, arodyn analog 3 (staple 1-2; also: RCM olefin trans)
T4 chain: Ac-[Tyr(All)][Tyr(All)]FRLRRIRPK-NH2

arodyn analog 6 [5] = target: T5, arodyn analog 6 (SMILES …)
T5 chain: Ac-F[Tyr(All)]FRLRRIRPK-NH2

arodyn analog 4 [6] = target: T1, arodyn analog 4
arodyn analog 5 [7] = target: T2, arodyn analog 5
arodyn analog 7 [8] = target: T3, arodyn analog 7
arodyn analog 3 [9] = target: T4, arodyn analog 3
arodyn analog 6 [10] = target: T5, arodyn analog 6

Binder	Ki (arodyn analog 4 [1]) [nM]	Ki (arodyn analog 5 [2]) [nM]	Ki (arodyn analog 7 [3]) [nM]	Ki (arodyn analog 3 [4]) [nM]	Ki (arodyn analog 6 [5]) [nM]	Ki (arodyn analog 4 [6]) [nM]	Ki (arodyn analog 5 [7]) [nM]	Ki (arodyn analog 7 [8]) [nM]	Ki (arodyn analog 3 [9]) [nM]	Ki (arodyn analog 6 [10]) [nM]
κ opioid receptor (protein) MESPIQIFRGEPGPTCAPSACLLPNSSSWFPNWAESDSNGSVGSEDQQLEPAHISPAIPVIITAVYSVVFVVGLVGNSLVMFVIIRYTKMKTATNIYIFNLALADALVTTTMPFQSAVYLMNSWPFGDVLCKIVISIDYYNMFTSIFTLTMMSVDRYIAVCHPVKALDFRTPLKAKIINICIWLLASSVGISAIVLGGTKVREDVDVIECSLQFPDDEYSWWDLFMKICVFVFAFVIPVLIIIVCYTLMILRLKSVRLLSGSREKDRNLRRITKLVLVVVAVFIICWTPIHIFILVEALGSTSHSTAVLSSYYFCIALGYTNSSLNPVLYAFLDENFKRCFRDFCFPIKMRMERQSTNRVRNTVQDPASMRDVGGMNKPV	55.4	83.3	134	71.7	66.3					
μ opioid receptor (protein) MDSSTGPGNTSDCSDPLAQASCSPAPGSWLNLSHVDGNQSDPCGLNRTGLGGNDSLCPQTGSPSMVTAITIMALYSIVCVVGLFGNFLVMYVIVRYTKMKTATNIYIFNLALADALATSTLPFQSVNYLMGTWPFGTILCKIVISIDYYNMFTSIFTLCTMSVDRYIAVCHPVKALDFRTPRNAKIVNVCNWILSSAIGLPVMFMATTKYRQGSIDCTLTFSHPTWYWENLLKICVFIFAFIMPVLIITVCYGLMILRLKSVRMLSGSKEKDRNLRRITRMVLVVVAVFIVCWTPIHIYVIIKALITIPETTFQTVSWHFCIALGYTNSCLNPVLYAFLDENFKRCFREFCIPTSSTIEQQNSTRVRQNTREHPSTANTVDRTNHQLENLEAETAPLP						903	1170	1430	1920	1460
